B1: RSPH3 (parent)
chain: FIPAKTGKDVATQILEGELFDFDL
B2: POMT2 (parent)
chain: VKYNSCADRPFSAPWWFWLSLTGV

Variants of: B1
Assay: protein stability index of a GFP-peptide fusion (GPS, HEK-293T) (PSI 1-6); higher = more stable
Details: c terminus: a fixed tail appended
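Note: lentivirally expressed fusions sorted by FACS into six bins by GFP to DsRed ratio, PSI derived from sequencing read proportions per bin multiplied by bin number.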

Row | Variant | protein stability index
1 | F20H | 1.59
2 | F1K | 4.24
3 | F20P | 2.37
4 | E16H | 1.32
5 | Q13V | 2.55
6 | Q13E | 1.65
7 | K8R | 2.37
8 | E18Y | 1.59
9 | T6N | 1.91
10 | V10A | 1.84
11 | F1T | 4.34
12 | G7M | 1.43
13 | A11G | 2.04
14 | K5L | 1.85
15 | P3K | 2.4
16 | L19V | 1.74
17 | F22L | 1.98
18 | D23C | 2.08
19 | D23T | 2.24
20 | G7W | 2.83
21 | E16Q | 1.7
22 | K5A | 1.77
23 | L15P | 2.02

Row | Variant | protein stability index
24 | E16S | 2.76
25 | V10D | 2.28
26 | E16P | 1.8
27 | Q13F | 2.07
28 | L19R | 1.6
29 | D21P | 2.47
30 | T12I | 1.85
31 | A11N | 1.68
32 | T12A | 2.18
33 | Q13D | 2.08
34 | Q13Y | 2.09
35 | E16L | 1.73
36 | F20Y | 2.01
37 | A11D | 2.48
38 | P3G | 2.5
39 | G17K | 1.93
40 | D9F | 2.59
41 | L19H | 2.01
42 | L15F | 2.18
43 | L24E | 2.78
44 | L24Q | 2.7
45 | F22C | 1.84
46 | D23M | 1.42

Row | Variant | protein stability index
47 | E18N | 2.38
48 | A11K | 2.24
49 | L24N | 2.43
50 | Q13G | 2.65
51 | T12H | 1.43
52 | A11E | 2.35
53 | D9N | 3.27
54 | V10W | 2.75
55 | Q13H | 2.62
56 | K8G | 1.71
57 | V10Y | 1.99
58 | F20N | 2.76
59 | L15Q | 1.96
60 | G17V | 2.75
61 | I14E | 2.09
62 | I14R | 1.55
63 | G17Y | 2.06
64 | E16M | 3.38
65 | A4V | 2.28
66 | F20G | 1.84
67 | E18R | 2.46

Variants of: B2
Assay: as above
Details: c terminus: a fixed tail appended

Row | Variant | protein stability index
68 | P10K | 4.18
69 | P14G | 2.4
70 | V24Y | 2.1
71 | C6L | 2.11
72 | L21N | 2.88
73 | G23C | 1.24
74 | S20M | 3.17
75 | S5D | 4.19
76 | L21A | 3.62
77 | A13H | 1.18
78 | L19E | 1.65
79 | D8S | 2.54
80 | Y3D | 2.19
81 | D8R | 3.03
82 | P14Y | 1.21
83 | W18S | 3.44
84 | S20L | 1.47
85 | S20C | 2.22
86 | W18A | 2.22
87 | K2T | 1.61
88 | R9A | 2.8
89 | V24M | 2.61
90 | G23E | 5.35
91 | T22V | 3.31
92 | V1L | 1.66

Row | Variant | protein stability index
93 | G23W | 1.21
94 | L21P | 2.68
95 | V1R | 1.98
96 | V24T | 1.5
97 | W18Y | 2.04
98 | A13G | 2.11
99 | F11G | 2.84
100 | A13R | 1
101 | C6D | 2.84
102 | G23Q | 4.6
103 | W15K | 3.58
104 | N4V | 3.46
105 | T22A | 1.62
106 | N4T | 3.25
107 | D8L | 3
108 | W15E | 3.49
109 | C6W | 1
110 | P10M | 1.94
111 | W16P | 2.08
112 | G23T | 2.04
113 | C6S | 2.14
114 | W16Q | 1.78
115 | S12I | 3.2
116 | P14A | 2.21
117 | V24A | 2.85

Row | Variant | protein stability index
118 | W18G | 3.3
119 | A13S | 2.06
120 | S5A | 4.07
121 | Y3K | 2.11
122 | L19N | 2.79
123 | W16T | 3.23
124 | V24N | 1.81
125 | G23V | 2.98
126 | F17W | 1.33
127 | V24I | 2.98
128 | L19F | 2.95
129 | P14R | 3.92
130 | K2F | 2.75
131 | S12A | 3.27
132 | W16L | 1.8
133 | F17K | 2.65
134 | A13E | 2.18
135 | N4E | 3.12
136 | W18V | 2.56
137 | R9G | 3.51
138 | L19I | 1.76
139 | P10E | 1.63
140 | W18T | 3.52
141 | C6I | 2.36
142 | W16D | 3.79

Row | Variant | protein stability index
143 | T22K | 2.12
144 | T22N | 1.29
145 | R9I | 3.57
146 | P14C | 2.27
147 | R9L | 2
148 | G23M | 1.55
149 | S20I | 2.08
150 | Y3P | 2.55
151 | L19T | 1.64
152 | R9N | 3.39
153 | D8W | 1.26
154 | G23F | 2.65
155 | G23I | 2.22
156 | T22I | 1.56
157 | C6T | 1.92
158 | W16V | 2.01
159 | V24E | 1
160 | D8I | 3.67
161 | S12F | 2.65
162 | F17V | 2.16
163 | G23N | 1.69
164 | C6G | 1.73
165 | F17T | 3.3
166 | K2N | 2.4
167 | P14V | 2.71
